“And” between values parts separate entries of the source, which are not always exact repeats. Identical values can stand only once.

The results in this text go back to paper PMC2396876 (The EMBO Journal, 2008).

The target of data set [1] is UspA1^(527–665), recombinant fragment of the Moraxella catarrhalis MX2 adhesin UspA1 (Moraxella catarrhalis (strain MX2)). The data set is described as follows: ITC.
Data set [2] has as its target N‐CEACAM1, the N‐terminal domain of human carcinoembryonic antigen‐related cell adhesion molecule 1 (human). Nature of the data set: AUC.
Data set [3] has as its target UspA1^(527–665), recombinant fragment of the Moraxella catarrhalis MX2 adhesin UspA1 (Moraxella catarrhalis (strain MX2)). Nature of the data set: AUC.
Data set [4] has as its target UspA1^(527–665) A568Q (Moraxella catarrhalis (strain MX2)). Nature of the data set: western blot of oligomers. For orientation: Immunoblotting shows a protein as a band on a membrane.
Data set [5] concerns the target UspA1^(527–665) A588Q (Moraxella catarrhalis (strain MX2)). Nature of the data set: western blot of oligomers.
Data set [6] has as its target UspA1^(527–665) A590Q (Moraxella catarrhalis (strain MX2)). Nature of the data set: western blot of oligomers.
For data set [7], the target named is UspA1^(527–665) L583A (Moraxella catarrhalis (strain MX2)). Nature of the data set: western blot of oligomers.
Data set [8] deals with UspA1^(527–665) M586A (Moraxella catarrhalis (strain MX2)). Nature of the data set: western blot of oligomers.
The target in data set [9] is UspA1^(527–665), recombinant fragment of the Moraxella catarrhalis MX2 adhesin UspA1 (Moraxella catarrhalis (strain MX2)). Nature of the data set: crystal structure.
The target of data set [10] is UspA1^(527–665) M586A (Moraxella catarrhalis (strain MX2)). Nature of the data set: far-Western, overlay or dot blot.
The target in data set [11] is UspA1^(527–665) M586A/A588Q (Moraxella catarrhalis (strain MX2)) (UniProt Q9XD56). Nature of the data set: far-Western, overlay or dot blot.
Data set [12] deals with the molecule itself. The data set is described as follows: western blot of oligomers.

On to “N‐CEACAM1, the N‐terminal domain of human carcinoembryonic antigen‐related cell adhesion molecule 1 (domain or fragment)”, for which the Kd (as a rule, the constant that tells how readily two partners part at equilibrium) in data set [1] turned out to be 35 nM. The stoichiometry N (N‐CEACAM1 per UspA1^(527–665) trimer) is 2.1 and 1.9 in [1]; 2 in data set [3]. This molecule also returned a stoichiometry N (chains in the oligomer) in [2] of 2.
Molecule “UspA1^(527–665) A568Q (domain or fragment)” returned a stoichiometry N (chains in the oligomer) in data set [4] of 3.
In the case of “UspA1^(527–665) A588Q (domain or fragment)”, the stoichiometry N (chains in the oligomer) in [5] was 3.
“UspA1^(527–665) A590Q (domain or fragment)”: the stoichiometry N (chains in the oligomer) in data set [6] is 3.
For “UspA1^(527–665) L583A (domain or fragment)”, the stoichiometry N (chains in the oligomer) in data set [7] amounted to 3.
Take “UspA1^(527–665) M586A (domain or fragment)”: in data set [8], the stoichiometry N (chains in the oligomer) is 3.
“UspA1^(527–665), recombinant fragment of the Moraxella catarrhalis MX2 adhesin UspA1 (domain or fragment)”: the stoichiometry N (chains in the oligomer) in [3] and in [9] was 3 in each case.
Take “soluble CEACAM1‐Fc receptor (from UniProt P13688 35-428) (Fc fusion)”: the results for the decrease in CEACAM1 binding (densitometry, against native UspA1^(527–665)) in data set [10] and in data set [11] were 14.8% and 90.4%, respectively.

B1: UspA1^(527–665) M586A/A588Q (domain or fragment, Moraxella catarrhalis (strain MX2), UniProt Q9XD56 527-665, looked up)
chain: ASSANTDRIATAELGIAENKKDAQIAKAQANENKDGIAKNQADIQLHDKKITNLGILHSAVQRAVGNNTQGVATNKADIAKNQADIANNIKNIYELAQQQDQHSSDIKTLAKVSAANTDRIAKNKAEADASFETLTKNQ
For the molecule B1, in data set [12], the stoichiometry N (as a rule, a count of units in the complex or per binding partner) is 3 chains in the oligomer.
